Measurements reported in PMC8250900.

B1: SP5 (ssDNA)
DNA: GGGAGAGGAGGGAGATAGATATCAACCATGGTAGGTATTGCTTGGTAGGGATAGTGGGCTTGATGTTTCGTGGATGCCACAGGAC
B2: SP6 (ssDNA)
DNA: GGGAGAGGAGGGAGATAGATATCAACCCATGGTAGGTATTGCTTGGTAGGGATAGTGGGCTTGATGTTTCGTGGATGCCACAGGAC
B3: SP6 biotin (ssDNA)
DNA: B2 DNA
B4: RBD4 (ssDNA)
DNA: GGGAGAGGAGGGAGATAGATATCAATGGGTGGGAGGGAGGGGGGCTTTATTCCGGTGTTTTTTCGTTTCGTGGATGCCACAGGAC
B5: RBD2 (ssDNA)
DNA: GGGAGAGGAGGGAGATAGATATCAATACAGTTGGTTGTAGGTTTTTGTTAGGTTAGTTTAGGGTTTTTCGTGGATGCCACAGGAC
B6: RBD1 (ssDNA)
DNA: GGGAGAGGAGGGAGATAGATATCAAGTTAGGTTCTGGATTAGGTTAGGGTTGTGTTGTTGTTAGGTTTCGTGGATGCCACAGGAC
B7: SP7 (ssDNA)
DNA: GGGAGAGGAGGGAGATAGATATCAAAGGAGGGTAGGTAGTGCTTGGTAGGGAAACTCCGCCGATTTTTCGTGGATGCCACAGGAC
B8: RBD3 (ssDNA)
DNA: GGGAGAGGAGGGAGATAGATATCAATGGGTGTTTTGGTTGTAGGGTTTAGGTTTAGGGTACTCTTTTTCGTGGATGCCACAGGAC

Tests used:
[1] = target: T1, ACE2 extracellular domain (human, UniProt Q9BYF1 19-615); experiment: flow cytometry
T1 sequence (Q9BYF1 19-615): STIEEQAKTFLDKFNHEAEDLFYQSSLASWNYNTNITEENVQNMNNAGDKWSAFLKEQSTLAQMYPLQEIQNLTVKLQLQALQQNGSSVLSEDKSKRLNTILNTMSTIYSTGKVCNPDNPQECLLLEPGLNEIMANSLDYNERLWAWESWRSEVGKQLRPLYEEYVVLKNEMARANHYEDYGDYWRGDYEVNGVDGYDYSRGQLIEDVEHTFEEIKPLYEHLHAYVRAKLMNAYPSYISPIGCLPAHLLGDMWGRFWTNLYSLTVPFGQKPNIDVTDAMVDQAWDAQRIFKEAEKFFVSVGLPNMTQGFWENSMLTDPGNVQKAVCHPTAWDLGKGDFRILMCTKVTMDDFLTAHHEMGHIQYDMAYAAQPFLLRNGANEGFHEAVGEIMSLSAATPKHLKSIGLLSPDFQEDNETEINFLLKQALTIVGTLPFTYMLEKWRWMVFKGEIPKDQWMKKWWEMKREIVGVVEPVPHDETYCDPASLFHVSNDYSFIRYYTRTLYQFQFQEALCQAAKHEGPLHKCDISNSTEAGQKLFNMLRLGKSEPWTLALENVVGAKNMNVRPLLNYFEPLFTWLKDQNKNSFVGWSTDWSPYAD

[2] = target: SARS-CoV-2 spike RBD (SARS-CoV-2, UniProt P0DTC2 319-591); experiment: flow cytometry
[3] = target: T2, SARS-CoV spike extracellular domain (CoV-S) (SARS-CoV, UniProt P59594 14-1190); experiment: flow cytometry
[4] = target: T2, SARS-CoV spike extracellular domain …; experiment: pull-down
[5] = target: Nek7 (human, UniProt Q8TDX7 1-302); experiment: pull-down
Chain of Nek7 (Q8TDX7 whole entry, the tested form may be a part): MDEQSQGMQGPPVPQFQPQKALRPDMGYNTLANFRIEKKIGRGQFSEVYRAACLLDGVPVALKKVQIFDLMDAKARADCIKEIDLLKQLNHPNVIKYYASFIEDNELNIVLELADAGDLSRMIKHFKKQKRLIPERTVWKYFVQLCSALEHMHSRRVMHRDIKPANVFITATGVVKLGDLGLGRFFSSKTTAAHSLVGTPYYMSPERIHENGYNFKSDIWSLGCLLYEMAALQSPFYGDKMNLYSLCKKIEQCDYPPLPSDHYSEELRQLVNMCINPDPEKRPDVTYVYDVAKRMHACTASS

[6] = target: T1, ACE2 extracellular domain; experiment: pull-down

| Binder | binding result [1] | binding result [2] | binding result [3] | further results |
| --- | --- | --- | --- | --- |
| B1 | no binding | no binding | no binding | – |
| B2 | no binding | no binding | no binding | – |
| B3 | – | – | – | binding result [4]: no binding; binding result [5]: no binding; binding result [6]: no binding |
| B4 | – | binds | – | – |
| B5 | – | binds | – | – |
| B6 | – | binds | – | – |
| B7 | no binding | no binding | no binding | – |
| B8 | – | binds | – | – |
